Source: US20240026032A1 (Alexion, published 2024)

T1: Human DLAT recombinant protein (ProSpec, Catalog # ENZ-082) (human, UniProt P10515 87-647, limits assumed)
T1 construct: also called DLAT antigen; Dihydrolipoamide Acetyltransferase
T1 sequence (looked up): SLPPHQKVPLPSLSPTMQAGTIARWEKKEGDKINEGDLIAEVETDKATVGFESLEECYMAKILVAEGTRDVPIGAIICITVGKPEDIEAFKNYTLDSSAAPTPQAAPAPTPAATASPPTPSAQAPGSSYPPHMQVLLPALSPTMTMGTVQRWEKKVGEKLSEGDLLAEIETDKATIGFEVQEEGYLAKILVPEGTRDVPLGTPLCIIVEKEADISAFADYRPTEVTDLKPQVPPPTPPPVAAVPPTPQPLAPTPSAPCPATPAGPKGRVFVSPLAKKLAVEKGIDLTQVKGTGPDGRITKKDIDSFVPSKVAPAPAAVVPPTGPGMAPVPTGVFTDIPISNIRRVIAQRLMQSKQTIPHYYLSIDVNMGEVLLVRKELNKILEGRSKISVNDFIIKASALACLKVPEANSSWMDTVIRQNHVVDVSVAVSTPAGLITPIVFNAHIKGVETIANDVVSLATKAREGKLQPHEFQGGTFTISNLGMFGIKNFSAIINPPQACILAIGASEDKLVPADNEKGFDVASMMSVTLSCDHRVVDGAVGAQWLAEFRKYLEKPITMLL


Legend:
[1] = target: T1, Human DLAT recombinant protein …; assay: BIAcore kinetics, antibody captured on anti-mouse surface, DLAT (Prospec) as analyte
[2] = target: T2, Programmed Death 1 (PD-1) Fc chimera (R&D Systems, Catalog # 1086-PD-050) (human, UniProt Q15116 25-167); assay: BLI (Octet Red), TPP-986 loaded on anti-human IgG Fc tips, DLAT 10 µg/mL bound first, then PD-1 Fc 12.5 µg/mL
T2 construct: Bought reagent; not shown: Fc part of the bought chimera (captured by anti-human Fc tips)
T2 sequence (Q15116 25-167, change not shown): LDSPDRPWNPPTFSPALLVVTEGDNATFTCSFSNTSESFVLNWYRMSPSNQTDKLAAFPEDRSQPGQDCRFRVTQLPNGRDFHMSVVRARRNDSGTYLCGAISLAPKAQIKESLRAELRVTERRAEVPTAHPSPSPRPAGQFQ
Description: (§1) Antibodies and antibody fusions were diluted to 16 μg/mL in PBS and loaded onto anti-human IgG Fc tips (ForteBio, Catalog # 18-5064). Human DLAT recombinant protein (ProSpec, Catalog # ENZ-082) was diluted into PBS to 10 μg/mL. […] Finally, a dissociation step in PBS was performed to determine dissociation from the bound antibodies.

[3] = target: T2, Programmed Death 1 (PD-1) Fc chimera …; assay: BLI (Octet), PD-1 Fc captured on anti-human Fc tips, TPP-994 at 10 µg/mL in PBS as analyte
Description: (§2) Final dissociation in PBS was performed in the last step on the Bio-Layer Interferometry (BLI) data.

[4] = target: T2, Programmed Death 1 (PD-1) Fc chimera …; assay: BLI (Octet), PD-1 Fc captured on anti-human Fc tips, TPP-995 at 10 µg/mL in PBS as analyte
Description: as §2

[5] = target: T2, Programmed Death 1 (PD-1) Fc chimera …; assay: BLI (Octet Red), TPP-992 loaded on anti-human IgG Fc tips, DLAT 10 µg/mL bound first, then PD-1 Fc 12.5 µg/mL
Description: as §1

[6] = target: T1, Human DLAT recombinant protein …; assay: BIAcore, AntiFc_TPP992_DLAT, kinetics from single concentration curve (12.5nM DLAT)

Kd [1] | koff [1] | kon [1] | Binder | further results
0.526 nM | 1.94e-05 s⁻¹ | 36900 M⁻¹ s⁻¹ | TPP-1004 (mIgG1 PD5 Ab) (antibody, also called murine IgG1 PD5; Mouse PD5) heavy: QLQLQESGPGLVKPSETLSLTCIVSGGSISRNSYYWGWIRQPPGKGLEWIGSIVYSGSTYHQPSLKSRVTIFLDTSKNQFFLKLTSVTAADTAVYYCARGTRATTWPPPIGYWGQGTLVTVSSAKTTPPSVYPLAPGSAAQTNSMVTLGCLVKGYFPEPVTVTWNSGSLSSGVHTFPAVLQSDLYTLSSSVTVPSSTWPSQTVTCNVAHPASSTKVDKKIVPRDCGCKPCICTVPEVSSVFIFPPKPKDVLTITLTPKVTCVVVDISKDDPEVQFSWFVDDVEVHTAQTKPREEQINSTFRSVSELPIMHQDWLNGKEFKCRVNSAAFPAPIEKTISKTKGRPKAPQVYTIPPPKEQMAKDKVSLTCMITNFFPEDITVEWQWNGQPAENYKNTQPIMDTDGSYFVYSKLNVQKSNWEAGNTFTCSVLHEGLHNHHTEKSLSHSPGK light: QSVLTQPPSVSAAPGQKVTVSCFGSSSNIGNYFASWYQQLPGAAPRLLIYGNNERPSGIPDRFSGSKSGTSATLVITGLQTGDEAAYYCATWDSSLSAVVFGGGTKLTVLGQPRADAAPTVSIFPPSSEQLTSGGASVVCFLNNFYPKDINVKWKIDGSERQNGVLNSWTDQDSKDSTYSMSSTLTLTKDEYERHNSYTCEATHKTSTSPIVKSFNRNEC | –
0.242 nM | 4.68e-05 s⁻¹ | 193000 M⁻¹ s⁻¹ | TPP-1003 (mIgG1 PD2 Ab) (antibody, V domains shown, also called mouse IgG1 chimera anti-DLAT antibody PD2) VH: EVQLVESGGGLVKPGGSLRLSCAASGFTFGSYSMTWVRQAPGKGLEWVSFISTVSTYIYYPDSVKGRFTISRDNAKNSLYLQMNSLRAEDTAVYYCARVSGRGSAARDGEKGTYYYYMDVWGKGTTVTVSS VL: SSELTQDPAVSVALGQTVTITCQGDSLRSYYASWYQQKPGQAPVLVIFGKNNRPSGIPDRFSGSRSGNTASLTITGAQAEDEADYFCDSRDSSANHWVFGGGTKLTVLQ | –
– | – | – | TPP-986, human IgG2/4 PD5 antibody, N-terminus PD-L1 HC (antibody, Antibody fused with the human PD-L1 variable-like domain) heavy: FTVTVPKDLYVVEYGSNMTIECKFPVEKQLDLAALIVYWEMEDKNIIQFVHGEEDLKVQHSSYRQRARLLKDQLSLGNAALQITDVKLQDAGVYRCMISYGGADYKRITVKVNAGGSSRSSSSGGGGSGGGGQLQLQESGPGLVKPSETLSLTCIVSGGSISRNSYYWGWIRQPPGKGLEWIGSIVYSGSTYHQPSLKSRVTIFLDTSKNQFFLKLTSVTAADTAVYYCARGTRATTWPPPIGYWGQGTLVTVSSASTKGPSVFPLAPCSRSTSESTAALGCLVKDYFPEPVTVSWNSGALTSGVHTFPAVLQSSGLYSLSSVVTVPSSNFGTQTYTCNVDHKPSNTKVDKTVERKCCVECPPCPAPPVAGPSVFLFPPKPKDTLMISRTPEVTCVVVDVSQEDPEVQFNWYVDGVEVHNAKTKPREEQFNSTYRVVSVLTVLHQDWLNGKEYKCKVSNKGLPSSIEKTISKAKGQPREPQVYTLPPSQEEMTKNQVSLTCLVKGFYPSDIAVEWESNGQPENNYKTTPPVLDSDGSFFLYSRLTVDKSRWQEGNVFSCSVMHEALHNHYTQKSLSLSLGK light: QSVLTQPPSVSAAPGQKVTVSCFGSSSNIGNYFASWYQQLPGAAPRLLIYGNNERPSGIPDRFSGSKSGTSATLVITGLQTGDEAAYYCATWDSSLSAVVFGGGTKLTVLGQPKANPTVTLFPPSSEELQANKATLVCLISDFYPGAVTVAWKADGSPVKAGVETTKPSKQSNNKYAASSYLSLTPEQWKSHRSYSCQVTHEGSTVEKTVAPTECS | binding result [2]: binds
– | – | – | TPP-994 (PD2 with PD-L1 fused to the C-terminus of the heavy chain) (Fab, Fab fusion with the human PD-L1 variable-like domain) heavy: EVQLVESGGGLVKPGGSLRLSCAASGFTFGSYSMTWVRQAPGKGLEWVSFISTVSTYIYYPDSVKGRFTISRDNAKNSLYLQMNSLRAEDTAVYYCARVSGRGSAARDGEKGTYYYYMDVWGKGTTVTVSSASTKGPSVFPLAPSSKSTSGGTAALGCLVKDYFPEPVTVSWNSGALTSGVHTFPAVLQSSGLYSLSSVVTVPSSSLGTQTYICNVNHKPSNTKVDKRVEPKSCGGSSRSSSSGGGGSGGGGFTVTVPKDLYVVEYGSNMTIECKFPVEKQLDLAALIVYWEMEDKNIIQFVHGEEDLKVQHSSYRQRARLLKDQLSLGNAALQITDVKLQDAGVYRCMISYGGADYKRITVKVNA light: SSELTQDPAVSVALGQTVTITCQGDSLRSYYASWYQQKPGQAPVLVIFGKNNRPSGIPDRFSGSRSGNTASLTITGAQAEDEADYFCDSRDSSANHWVFGGGTKLTVLQPKAAPSVTLFPPSSEELQANKATLVCLISDFYPGAVTVAWKADSSPVKAGVETTTPSKQSNNKYAASSYLSLTPEQWKSHKSYSCQVTHEGSTVEKTVAPTECS | binding result [3]: binds
– | – | – | TPP-995 (PD2 with PD-L1 fused to the N-terminus of the heavy chain) (Fab, Fab fusion with the human PD-L1 variable-like domain) heavy: FTVTVPKDLYVVEYGSNMTIECKFPVEKQLDLAALIVYWEMEDKNIIQFVHGEEDLKVQHSSYRQRARLLKDQLSLGNAALQITDVKLQDAGVYRCMISYGGADYKRITVKVNAGGSSRSSSSGGGGSGGGGEVQLVESGGGLVKPGGSLRLSCAASGFTFGSYSMTWVRQAPGKGLEWVSFISTVSTYIYYPDSVKGRFTISRDNAKNSLYLQMNSLRAEDTAVYYCARVSGRGSAARDGEKGTYYYYMDVWGKGTTVTVSSASTKGPSVFPLAPSSKSTSGGTAALGCLVKDYFPEPVTVSWNSGALTSGVHTFPAVLQSSGLYSLSSVVTVPSSSLGTQTYICNVNHKPSNTKVDKRVEPKSC light: SSELTQDPAVSVALGQTVTITCQGDSLRSYYASWYQQKPGQAPVLVIFGKNNRPSGIPDRFSGSRSGNTASLTITGAQAEDEADYFCDSRDSSANHWVFGGGTKLTVLQPKAAPSVTLFPPSSEELQANKATLVCLISDFYPGAVTVAWKADSSPVKAGVETTTPSKQSNNKYAASSYLSLTPEQWKSHKSYSCQVTHEGSTVEKTVAPTECS | binding result [4]: binds
– | – | – | TPP-992, human IgG2/4 PD5 antibody, N-terminus PD-L1 LC (antibody, Antibody fused with the human PD-L1 variable-like domain) heavy: QLQLQESGPGLVKPSETLSLTCIVSGGSISRNSYYWGWIRQPPGKGLEWIGSIVYSGSTYHQPSLKSRVTIFLDTSKNQFFLKLTSVTAADTAVYYCARGTRATTWPPPIGYWGQGTLVTVSSASTKGPSVFPLAPCSRSTSESTAALGCLVKDYFPEPVTVSWNSGALTSGVHTFPAVLQSSGLYSLSSVVTVPSSNFGTQTYTCNVDHKPSNTKVDKTVERKCCVECPPCPAPPVAGPSVFLFPPKPKDTLMISRTPEVTCVVVDVSQEDPEVQFNWYVDGVEVHNAKTKPREEQFNSTYRVVSVLTVLHQDWLNGKEYKCKVSNKGLPSSIEKTISKAKGQPREPQVYTLPPSQEEMTKNQVSLTCLVKGFYPSDIAVEWESNGQPENNYKTTPPVLDSDGSFFLYSRLTVDKSRWQEGNVFSCSVMHEALHNHYTQKSLSLSLGK light: FTVTVPKDLYVVEYGSNMTIECKFPVEKQLDLAALIVYWEMEDKNIIQFVHGEEDLKVQHSSYRQRARLLKDQLSLGNAALQITDVKLQDAGVYRCMISYGGADYKRITVKVNAGGSSRSSSSGGGGSGGGGQSVLTQPPSVSAAPGQKVTVSCFGSSSNIGNYFASWYQQLPGAAPRLLIYGNNERPSGIPDRFSGSKSGTSATLVITGLQTGDEAAYYCATWDSSLSAVVFGGGTKLTVLGQPKANPTVTLFPPSSEELQANKATLVCLISDFYPGAVTVAWKADGSPVKAGVETTKPSKQSNNKYAASSYLSLTPEQWKSHRSYSCQVTHEGSTVEKTVAPTECS | binding result [5]: binds; Kd [6]: 0.184 nM; koff [6]: 0.000238 s⁻¹; kon [6]: 1.29e+06 M⁻¹ s⁻¹
1.72 nM | 0.000149 s⁻¹ | 86300 M⁻¹ s⁻¹ | TPP-1005 (mIgG1 DWZ Ab) (antibody, V domains shown, also called murine IgG1 DWZ) VH: EVQLLESGGDVVQPGGSLRLSCVASGFTLTNYVTAWVRRRPGKGLEWISGMTHGAVATYYSDSVRGRFSSSRDTSRSTLYLQMNDLTVEDTAIYYCAKSLHRSGTSLSYWGQGTLVTVSS VL: QSVLTQPPSASGTPGQNINISCSGTTSNIGGSNVDWYQHVPGTAPKLFIHSNNQRPSGVPARFSASKSGTSASLAISGLQSEDEADYYCATWDVRLLAYVFGSATEVTVLR | –
